Source: US20010044939A1, “Small subunit of plant acetolactate synthase” (priority 2000, published 2001)

What was measured:
[1] = system: Nicotiana plumbaginifolia acetolactate synthase (ALS) holoenzyme: N. plumbaginifolia LSU (encoded by pMTDRALS; ALS10 cDNA SEQ ID NO:42, predicted polypeptide …); test: Inhibition of reconstituted plant ALS holoenzyme by herbicides (acetoin detection, microtiter plate); type: biochemical; conditions: holoenzyme (LSU + GST-SSU, thrombin cleaved); sodium pyruvate started (10 μL of 500 mM per well); pH 7.6; 37° C., 30 min; read-out: I50
Experimental: The plasmid pSSU Bbs/Bam was digested to completion with Bbs I and Xho I and the digestion products were separated by electrophoresis using a […] agarose gel and the 1.35 kbp Bbs I/Xho I fragment was recovered from the gel. Three hundred ng of this DNA was ligated with 1 μg of the plasmid pGEX-2TM that had been digested to completion with BamH I and Xho I and dephosphorylated as described above. The ligation reaction was diluted five fold with H2O and used to transform competent Max Efficiency E. coli DH5α as described above. […] This plasmid was designated pGEX-SSU.
The plasmid ALS10 that contains a full length cDNA copy of the Nicotiana plumbaginifolia ALS gene in the plasmid vector pBluescript was used as the source of the ALS coding region for pMTDRALS. The sequence of this cDNA is shown in SEQ ID NO:42. ALS10 was digested to completion with Xho I and Eco0109I, and the digestion products were separated by agarose gel electrophoresis. […] The plates were incubated overnight at 37° C. and plasmids isolated from kanamycin-resistant bacterial colonies were analyzed for the presence of the insert encoding the ALS large subunit by double digestion with Nde I and Xho I. One such plasmid, designated pMTDRALS was then transformed into E. coli BL21(DE3) using methods known to those skilled in the art. […]

[2] = biological target: free Arabidopsis thaliana ALS large subunit released from GST-LSU by thrombin (Arabidopsis thaliana) (UniProt P17597); test: cell-based or functional assay
[3] = biological target: N. plumbaginifolia ALS large subunit from plasmid pMTDRALS (Nicotiana plumbaginifolia); test: cell-based or functional assay
[4] = biological target: GST-LSU: A. thaliana ALS large subunit expressed as a glutathione-S-transferase fusion protein from plasmid pGEX-OCM2 (Arabidopsis thaliana) (UniProt P17597); test: cell-based or functional assay

Row | Specific Activity after thrombin addition (units/mg LSU), ALS enzyme assay [2] | Specific Activity after thrombin addition (units/mg LSU), ALS enzyme assay [3] | Specific Activity before thrombin addition (units/mg LSU), ALS enzyme assay [3] | Specific Activity before thrombin addition (units/mg LSU), ALS enzyme assay [4] | Compound | IC50 [1] | further results
1 |  |  |  |  | CC(C)C1(C)N=C(c2nc3ccccc3cc2C(=O)O)NC1=O (stereo not shown) [imazequin] | 800 nM | 
2 | 0.04 units/mg LSU | 0.4 units/mg LSU | 1.1 units/mg LSU | 0.3 units/mg LSU | bovine serum albumin (from UniProt P02769 25-607) |  | 
3 |  |  | 5.5 units/mg LSU | 0.9 units/mg LSU | Trx-HIS/SSU: N. plumbaginifolia acetolactate synthase small subunit expressed as a thioredoxin fusion from plasmid pTrx-HIS/SSU (from UniProt P0AA25 1-109) |  | fold increase in specific activity (sample 4 against sample 3, before thrombin) [3]: 5 fold; fold increase in specific activity (sample 2 against sample 1, before thrombin) [4]: 3 fold
4 |  |  |  |  | CCc1cnc(C2=NC(C)(C(C)C)C(=O)N2)c(C(=O)O)c1 (stereo not shown) [imezethapyr] | 4000 nM | 
5 | 1.1 units/mg LSU | 6.5 units/mg LSU |  |  | free N. plumbaginifolia ALS small subunit released from Trx-HIS/SSU by thrombin |  | fold increase in specific activity (sample 2 against sample 1, after thrombin) [2]: > 20 fold
